PMC10398351, “Structural and molecular insight into antibody recognition of dynamic neoepitopes in membrane tethered MUC1 of pancreatic cancer cells and secreted exosomes” (RSC Chemical Biology, 2023)

Columns and labels:
[1] = molecular target: MUC1 TRD-Tn (3); assay: SPR; Biacore 2000; MUC1 TRD models 2-4 immobilised on a CM5 chip by maleimide coupling through a C-terminal cysteine; SN-131 Fab injected; bivalent binding model
[2] = molecular target: MUC1-ST (4); assay: as above

Kd [1]: 3.78 nM | Kd [2]: 1.58 nM
B1: SN-131 Fab (Fab, V domains shown)
VH: QVQLQQSGAELARPGASVKLSCKASGYTFTNYGLSWVKQRTGQGLEWIGENHPGSGIIYHNEKFRGKATLTADKSSSTAYVQLSSLTSEDSAVYFCARSSGTRGFAYWGQGTLVTVSA
VL: DVLMTQTPLSLPVSLGDQASISCRSSQSIVHSNGNTYLEWYLQKPGQSPKLLIYKVSNRFSGVPDRFSGSGSGTDFTLKISRVEAEDLGVYYCFQGSHGPWTFGGGTKLEIK
